Measurements from patent US20220177587A1, “METHODS AND USES OF VARIANT CD80 FUSION PROTEINS AND RELATED CONSTRUCTS” (Alpine Immune Sciences, Inc., priority 2018, published 2022).

What was measured:
allogeneic CD4+ T cells = test: Mixed Lymphocyte Reaction (MLR), IFN-gamma; format: cell-based, human; conditions: Table E32; variant ECD-Fc in MLR assay; culture supernatant
Experimental: Soluble rCD80.Fc bioactivity was tested in a human Mixed Lymphocyte Reaction (MLR). Human primary dendritic cells (DC) were generated by culturing monocytes isolated from PBMC (BenTech Bio, USA) in vitro for 7 days with 500U/ml rIL-4 (R&D Systems, USA) and 250 U/ml rGM-CSF (R&D Systems, USA) in Ex-Vivo 15 media (Lonza, Switzerland). 10,000 matured DC and 100,000 purified allogeneic CD4+ T cells (BenTech Bio, USA) were co-cultured with variant CD80 Fc fusion proteins and controls in 96 well round bottom plates in 200 μl final volume of Ex-Vivo 15 media. On day 5, IFN-gamma secretion in culture supernatants was analyzed using the Human IFN-gamma Duoset ELISA kit (R&D Systems, USA). Optical density was measured by VMax ELISA Microplate Reader (Molecular Devices, USA) and quantitated against titrated rIFN-gamma standard included in the IFN-gamma Duo-set kit (R&D Systems, USA).

huPD-L1 = huPD-L1 (Homo sapiens, UniProt Q9NZQ7); test: Flow binding to Expi293F cells transfected with PD-L1 (ECD variants); set-up: Full-length mammalian surface expression constructs for each of human CTLA-4, PD-L1, and CD28; host or cells: HEK293 cells, Expi293F transient transfection system; conditions: Table E32; variant CD80 ECD-Fc selected against CD28
Chain of huPD-L1 (Q9NZQ7 19-290): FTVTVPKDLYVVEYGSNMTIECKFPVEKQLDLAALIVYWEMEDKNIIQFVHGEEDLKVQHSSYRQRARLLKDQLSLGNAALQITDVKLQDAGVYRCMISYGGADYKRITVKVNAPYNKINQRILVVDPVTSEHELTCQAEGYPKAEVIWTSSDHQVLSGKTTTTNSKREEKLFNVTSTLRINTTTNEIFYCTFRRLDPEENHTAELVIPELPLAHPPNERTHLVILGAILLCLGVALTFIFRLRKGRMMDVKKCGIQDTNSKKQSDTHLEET
Experimental: To produce cells expressing cognate binding partners, full-length mammalian surface expression constructs for each of human CD28, CTLA-4 and PD-L1, were designed in pcDNA3.1 expression vector (Life Technologies) and sourced from Genscript, USA. Binding studies were carried out using the Expi293F transient transfection system (Life Technologies, USA). […] For each CD28, CTLA-4, PD-L1, or mock 30 ml transfection, 75 million Expi293F cells were incubated with 30 μg expression construct DNA and 1.5 ml diluted ExpiFectamine 293 reagent for 48 hours, at which point cells were harvested for staining.
For staining by flow cytometry, 200,000 cells of appropriate transient transfection or negative control were plated in 96-well round bottom plates. Cells were spun down and resuspended in staining buffer (PBS (phosphate buffered saline), 1% BSA (bovine serum albumin), and 0.1% sodium azide) for 20 minutes to block non-specific binding. […] Secondary antibody was washed out twice, cells were fixed in 4% formaldehyde/PBS, and samples were analyzed on FACScan flow cytometer (Becton Dickinson, USA).
Mean Fluorescence Intensity (MFI) was calculated for each transfectant and negative parental line with Cell Quest Pro software (Becton Dickinson, USA).

human pan T cells = test: Anti-CD3 coimmobilization assay, IFN-gamma; format: cell-based; conditions: Table E32; variant ECD-Fc coimmobilized with anti-CD3; culture supernatant
Experimental: Costimulatory bioactivity of CD80 fusion variants was determined in anti-CD3 coimmobilization assays. 1 nM or 4 nM mouse anti-human CD3 (OKT3, Biolegends, USA) was diluted in PBS with 1 nM to 80 nM rCD80.Fc variant proteins. This mixture was added to tissue culture treated flat bottom 96-well plates (Corning, USA) overnight to facilitate adherence of the stimulatory proteins to the wells of the plate. The next day, unbound protein was washed off the plates and 100,000 purified human pan T cells (BenTech Bio, US) or human T cell clone BC3 (Astarte Biologics, USA) were added to each well in a final volume of 200 μl of Ex-Vivo 15 media (Lonza, Switzerland). Cells were cultured 3 days before harvesting culture supernatants and measuring human IFN-gamma levels with Duoset ELISA kit (R&D Systems, USA) as described above.

CD28 [1] = biological target: T1, CD28 (Homo sapiens, UniProt P10747); test: Flow binding to HEK293 cells transfected with CD28; set-up: Full-length mammalian surface expression constructs for each of human CTLA-4, PD-L1, and CD28; host or cells: HEK293 cells, Expi293F transient transfection system; conditions: Table E1
Experimental: This Example describes Fc-fusion binding studies of purified proteins from the above Examples to cell-expressed CTLA-4, PD-L1, and CD28 counter structures to assess the specificity and affinity of CD80 domain variant immunomodulatory proteins. Full-length mammalian surface expression constructs for each of human CTLA-4, PD-L1, and CD28, were designed in pcDNA3.1 expression vector (Life Technologies) and sourced from Genscript, USA. Binding studies were carried out on transfected HEK293 cells generated to express the full-length mammalian surface ligands using the using the Expi293F transient transfection system (Life Technologies, USA). As a control, binding to mock (non-transfected) cells also was assessed. […]
For staining and analysis by flow cytometry, 100,000 cells of appropriate transient transfection or negative control (mock) were plated in 96-well round bottom plates. […] As controls, the binding activities of wild-type CD80-ECD-Fc (R&D Systems), wild-type CD80-ECD-Fc (inert), wild-type IgV-Fc (inert) and/or human IgG (Sigma) were also assessed. […] Secondary antibody was washed out twice, cells were fixed in 4% formaldehyde/PBS, and samples were analyzed on Intellicyt flow cytometer (Intellicyt Corp, USA). Mean Fluorescence Intensity (MFI) was calculated for each transfectant and mock transfected HEK293 with FlowJo Version 10 software (FlowJo LLC, USA). […]

CD28 [2] = biological target: T1, CD28; test: CD28 costimulation via Fc receptor or PD-L1 dependent cross-linking (Jurkat/IL2 + K562/OKT3 +/- PD-L1); format: cell-based; set-up: host or cells: Jurkat cells expressing an IL-2-luciferase reporter; conditions: luciferase signal
Experimental: In a further experiment, CD28 costimulation was assessed for variant CD80-IgV-Fc fusion proteins, where the Fc was an IgG1 Fc (e.g. SEQ ID NO:1517) capable of mediating effector activity via binding to Fc receptors (FcR). The experiment was carried out as described in part A above, except CD32-expressing K562 cells stably transduced with OKT3 (K562/OKT3) or OKT3 and PD-L1 (K562/OKT3/PD-L1) were used instead of the CHO/OKT3 and CHO/OKT3/PD-L1 cells, and the results are depicted in Table E9.

CD28 [3] = biological target: T1, CD28; test: Jurkat/IL2 + CHO/OKT3 +/- PD-L1 reporter assay: PD-L1-dependent CD28 costimulation; format: cell-based; set-up: host or cells: Jurkat cells expressing an IL-2-luciferase reporter; conditions: luciferase signal
Experimental: Jurkat cells were then plated at 50 μL/well for a total of 100,000 cells per well.
To each well, 25 μL of test protein was added to the Jurkat cells. […] The Jurkat cells with test or control proteins were incubated for 15 minutes at room temperature. CHO-derived artificial antigen presenting cells (aAPC) displaying transduced cell surface anti-CD3 single chain Fv (OKT3) (i.e., no PD-L1), or OKT3 and PD-L1 (i.e., +PD-L1), were brought to 0.8×10^6 cells/mL, and 25 μL of cells were added to each well, bringing the final volume of each well to 100 μL. […] Jurkat cells and CHO cells were incubated for 5 hours at 37 degrees Celsius in a humidified 5% CO2 incubation chamber. Plates were then removed from the incubator and acclimated to room temperature for 15 minutes. 100 μL of a cell lysis and luciferase substrate solution (BioGlo luciferase reagent, Promega) were added to each well and the plates were incubated on an orbital shaker for 10 minutes. Luminescence was measured with a 1 second per well integration time using a BioTek Cytation luminometer, and a relative luminescence value (RLU) was determined for each test sample.

huCTLA4 = huCTLA4 (Homo sapiens, UniProt P16410); test: Flow binding to HEK293 cells transfected with CTLA4; set-up: Full-length mammalian surface expression constructs for each of human CTLA-4, PD-L1, and CD28; host or cells: HEK293 cells, Expi293F transient transfection system; conditions: Table E1
Chain of huCTLA4 (P16410 36-223): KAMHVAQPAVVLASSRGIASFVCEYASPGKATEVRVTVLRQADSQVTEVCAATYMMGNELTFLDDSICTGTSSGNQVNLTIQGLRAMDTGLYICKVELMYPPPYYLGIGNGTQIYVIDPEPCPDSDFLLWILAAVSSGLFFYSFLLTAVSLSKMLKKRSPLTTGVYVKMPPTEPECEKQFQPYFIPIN
Experimental: Full-length mammalian surface expression constructs for each of human CTLA-4, PD-L1, and CD28, were designed in pcDNA3.1 expression vector (Life Technologies) and sourced from Genscript, USA. Binding studies were carried out on transfected HEK293 cells generated to express the full-length mammalian surface ligands using the using the Expi293F transient transfection system (Life Technologies, USA). As a control, binding to mock (non-transfected) cells also was assessed. […] For each CTLA-4, PD-L1, CD-28 or mock 30 mL transfection, 75 million Expi293F cells were incubated with 30 μg expression construct DNA and 1.5 mL diluted ExpiFectamine 293 reagent for 48 hours, at which point cells were harvested for staining.
For staining and analysis by flow cytometry, 100,000 cells of appropriate transient transfection or negative control (mock) were plated in 96-well round bottom plates. Cells were spun down and resuspended in staining buffer (PBS (phosphate buffered saline), 1% BSA (bovine serum albumin), and 0.1% sodium azide) for 20 minutes to block non-specific binding. […] Secondary antibody was washed out twice, cells were fixed in 4% formaldehyde/PBS, and samples were analyzed on Intellicyt flow cytometer (Intellicyt Corp, USA). Mean Fluorescence Intensity (MFI) was calculated for each transfectant and mock transfected HEK293 with FlowJo Version 10 software (FlowJo LLC, USA).

Substance | MLR IFN-gamma levels (allogeneic CD4+ T cells) [pg/mL] | Binding PD-L1 MFI (huPD-L1) | Coimmobilization with anti CD3 IFN-gamma (human pan T cells) [pg/mL] | CD28 MFI at 66.6 nM (CD28 [1]) | CD28 costimulation, Combination of FcR and/or PD-L1 Dependent Cross-Linking, 0.6 nM (CD28 [2]; K562/0KT3/PD-L1 aAPC, 0.6 nM) | CD28 costimulation, Combination of FcR and/or PD-L1 Dependent Cross-Linking, 50 nM (CD28 [2]; K562/0KT3/PD-L1 aAPC, 50 nM) | CD28 costimulation, FcR Dependent Cross-Linking (No PD-L1), 0.6 nM (CD28 [2]; K562/0KT3 aAPC, 0.6 nM) | CD28 costimulation, FcR Dependent Cross-Linking (No PD-L1), 50 nM (CD28 [2]; K562/0KT3 aAPC, 50 nM) | CD28 costimulation, FcR Dependent Cross-Linking (No PD-L1), […] (CD28 [2]; K562/0KT3 aAPC, […]) | PD-L1-Dependent CD28 Costimulation, +PD-L1, 0.6 nM (CD28 [3]; CHO/OKT3/PD-L1 aAPC, 0.6 nM) | PD-L1-Dependent CD28 Costimulation, +PD-L1, 50 nM (CD28 [3]; CHO/OKT3/PD-L1 aAPC, 50 nM) | PD-L1-Dependent CD28 Costimulation, No PD-L1, 50 nM (CD28 [3]; CHO/OKT3 aAPC, no PD-L1, 50 nM) | PD-L1-Dependent CD28 Costimulation, No PD-L1, […] (CD28 [3]; CHO/OKT3 aAPC, no PD-L1, […]) | CTLA4 MFI at 66.6 nM (huCTLA4)
WT CD80 | 866 | 70 | 83 | – | – | – | – | – | – | – | – | – | – | –
Fc only: negative control Fc alone [reference compound] | – | – | – | 2592 | 689 | 679 | 1404 | 1373 | 1390 | 501 | 440 | 395 | 419 | 5962
